Test results taken from patent publication US20210355194A1 (TWIST BIOSCIENCE, published 2021).
Like-named read-outs stand apart in the source and are kept apart here.

Tests used:
[1] = molecular target: CV S-protein construct 6 trimer TP31001F (SARS-CoV-2, UniProt P0DTC2 14-1208); experiment: SPR
[2] = molecular target: CV S-protein construct 6 trimer TP31001F (SARS-CoV-2, UniProt P0DTC2 14-1208); experiment: SPR; remark: listed apart in the source

| Binder | Kd [1] [nM] | Kd [2] [nM] |
| --- | --- | --- |
| variant 6-67 (Fc fusion) VHH: EVQLVESGGGLVQPGGSLRLSCAASGSFSNYAMGWFRQAPGKEREFVAAISSSGALTSYADSVKGRFTISADNSKNTAYLQMNSLKPEDTAVYYCWIVGPGPLDGMDVWGQGTLVTVSS | 0.1 | – |
| variant 6-108 (Fc fusion) VHH: EVQLVESGGGLVQPGGSLRLSCAASGGTFGSYGMGWFRQAPGKEREFVAAIRWSGGITYYADSVKGRFTISADNSKNTAYLQMNSLKPEDTAVYYCARERYWNPLPYYYYGMDVWGQGTLVTVSS | 0.3 | – |
| variant 6-70 (Fc fusion) VHH: EVQLVESGGGLVQPGGSLRLSCAASGFNLDDYADMGWFRQAPGKEREFVAAIGWGGGSTRYADSVKGRFTISADNSKNTAYLQMNSLKPEDTAVYYCAREILWFGEFGEPNVWGQGTLVTVSS | 1.1 | – |
| variant 6-99 (Fc fusion) VHH: EVQLVESGGGLVQPGGSLRLSCAASGIPFRSRTMGWFRQAPGKEREFVAGISRSGASTAYADSVKGRFTISADNSKNTAYLQMNSLKPEDTAVYYCTHANDYGDYWGQGTLVTVSS | 3.4 | – |
| variant 6-106 (Fc fusion) VHH: EVQLVESGGGLVQPGGSLRLSCAASGIPSTLRAMGWFRQAPGKEREFVAATSWSGGSKYYADSVKGRFTISADNSKNTAYLQMNSLKPEDTAVYYCATDLYYMDVWGQGTLVTVSS | 1070 | – |
| variant 6-95 (Fc fusion) VHH: EVQLVESGGGLVQPGGSLRLSCAASGIPSSIRAMGWFRQAPGKEREFVAVIRWTGGSTYYADSVKGRFTISADNSKNTAYLQMNSLKPEDTAVYYCARDIGYYDSSGYYNDGGFDYWGQGTLVTVSS | 7.6 | – |
| variant 6-90 (Fc fusion) VHH: EVQLVESGGGLVQPGGSLRLSCAASGFPFSIWPMGWFRQAPGKEREFVAAVRWSSTYYADSVKGRFTISADNSKNTAYLQMNSLKPEDTAVYYCATGECDGGSCSLAYWGQGTLVTVSS | 17.1 | – |
| variant 6-68 (Fc fusion) VHH: EVQLVESGGGLVQPGGSLRLSCAASGFTLSDRAMGWFRQAPGKEREYVAHITAGGLSNYADSVKGRFTISADNSKNTAYLQMNSLKPEDTAVYYCVHLASQTGAGYFDLWGQGTLVTVSS | 0.7 | – |
| variant 6-102 (Fc fusion) VHH: EVQLVESGGGLVQPGGSLRLSCAASGSSFSAYAMGWFRQAPGKEREFVSAIDSEGTTTYADSVKGRFTISADNSKNTAYLQMNSLKPEDTAVYYCAGDYNFWSGFDHWGQGTLVTVSS | 0.9 | – |
| variant 6-66 (Fc fusion) VHH: EVQLVESGGGLVQPGGSLRLSCAASGLTFSLFAMGWFRQAPGKERELVAAISSGGSTDYADSVKGRFTISADNSKNTAYLQMNSLKPEDTAVYYCARGNTKYYYDSSGYSSAFDYWGQGTLVTVSS | 7.7 | – |
| variant 6-112 (Fc fusion) VHH: EVQLVESGGGLVQPGGSLRLSCAASGGTFSAYHMGWFRQAPGKERELVTIIDNGGPTSYADSVKGRFTISADNSKNTAYLQMNSLKPEDTAVYYCTALLYYFDNSGYNFDPFDIWGQGTLVTGSS | 43.8 | – |
| variant 6-82 (Fc fusion) VHH: EVQLVESGGGLVQPGGSLRLSCAASGSSLDAYGMGWFRQAPGKEREFVAAISWGGGSIYYADSVKGRFTISADNSKNTAYLQMNSLKPEDTAVYYCARLSQGMVALDYWGQGTLVTVSS [variant 6-82, listing 1 of 2 here] | 0.6 | – |
| variant 6-82 (Fc fusion) VHH: EVQLVESGGGLVQPGGSLRLSCAASGSSLDAYGMGWFRQAPGKEREFVAAISWGGGSIYYADSVKGRFTISADNSKNTAYLQMNSLKPEDTAVYYCARLSQGMVALDYWGQGTLVTVSS [variant 6-82, listing 2 of 2 here] | – | 0.6 |
| variant 6-84 (Fc fusion) VHH: EVQLVESGGGLVQPGGSLRLSCAASGFTPDDYAMGWFRQAPGKEREFVAAINSGGSYTYYADSVKGRFTISADNSKNTAYLQMNSLKPEDTAVYYCARDRGPWGQGTLVTVSS | 0.7 | – |
| variant 6-71 (Fc fusion) VHH: EVQLVESGGGLVQPGGSLRLSCAASGITFSNDAMGWFRQAPGKEREFVAIITSSDTNDTTNYADSVKGRFTISADNSKNTAYLQMNSLKPEDTAVYYCARLHYYDSSGYFDYWGQGTLVTVSS | 0.6 | – |
| variant 6-76 (Fc fusion, VHH-Fc) VHH: EVQLVESGGGLVQPGGSLRLSCAASGLAFDFDGMGWFRQAPGKEREGVAAINSGGSTYYADSVKGRFTISADNSKNTAYLQMNSLKPEDTAVYYCARFFRAHDYWGQGTLVTVSS | 1.8 | – |
| variant 6-103 (Fc fusion) VHH: EVQLVESGGGLVQPGGSLRLSCAASGRTSSPIAMGWFRQAPGKEREPVAVRWSDDYTYYADSVKGRFTISADNSKNTAYLQMNSLKPEDTAVYYCAKKLGGYYAFDIWGQGTLVTVSS | 1 | – |
| variant 6-75 (Fc fusion) VHH: EVQLVESGGGLVQPGGSLRLSCAASGGTFSTYWMGWFRQAPGKEREFVAAISRSGGNTYYADSVKGRFTISADNSKNTAYLQMNSLKPEDTAVYYCVRHSGTDGDSSFDYWGQGTLVTVSS | 1 | – |
| variant 6-72 (Fc fusion) VHH: EVQLVESGGGLVQPGGSLRLSCAASGSTLSINAMGWFRQAPGKEREFVAAIDWSGGSTAYADSVKGRFTISADNSKNTAYLQMNSLKPEDTAVYYCARDSSATRTGPDYWGQGTLVTVSS | 2 | – |
| variant 6-78 (Fc fusion, VHH-Fc) VHH: EVQLVESGGGLVQPGGSLRLSCAASGRTYDAMGWFRQAPGKEREFVASVTSGGYTHYADSVKGRFTISADNSKNTAYLQMNSLKPEDTAVYYCAKFGRKIVGATELDYWGQGTLVTVSS | 0.4 | – |
| variant 6-74 (Fc fusion) VHH: EVQLVESGGGLVQPGGSLRLSCAASGFAFGDSWMGWFRQAPGKERELVAAITSGGSTDYADSVKGRFTISADNSKNTAYLQMNSLKPEDTAVYYCARGLLWFGELFGYWGQGTLVTVSS | 498 | – |
| variant 6-73 (Fc fusion, VHH-Fc) VHH: EVQLVESGGGLVQPGGSLRLSCAASGHTFSGYAMGWFRQAPGKEREFVAVITREGSTYYADSVKGRFTISADNSKNTAYLQMNSLKPEDTAVYYCARLGGEGFDYWGQGTLVTVSS | 0.5 | – |
| variant 6-6 (Fc fusion) VHH: EVQLVESGGGLVQPGGSLRLSCAASGTTLDYYAMGWFRQAPGKERELVAAISWSGGSTAYADSVKGRFTISADNSKNTAYLQMNSLKPEDTAVYYCAREDYYDSSGYSWGQGTLVTVSS | – | 67.7 |
| variant 6-44 (Fc fusion) VHH: EVQLVESGGGLVQPGGSLRLSCAASGGTFGVYHMGWFRQAPGKEREFIGRITWTDGSTYYADSVKGRFTISADNSKNTAYLQMNSLKPEDTAVYYCFGLLEVYDMTFDYWGQGTLVTVSS | – | 0.9 |
| variant 6-97 (Fc fusion) VHH: EVQLVESGGGLVQPGGSLRLSCAASGFTFSSLAMGWFRQAPGKEREFVAAITWSGDITNYADSVKGRFTITADNSKNTAYLQMNSLKPEDTAVYYCLRLSSSGFDHWGQGTLVTVSS | 57.9 | – |
